# B1: LINE1-full (parent)
# chain: UACGUAGGUGGUUUUCCCCUGAUAGUGCUAAGGGGGCCUGGAAGUUUGGACUGGGCAGAGCUCAACACAGCGUGGCAAAGUGGCUGUGGCUAGACUGCCUCUCUGGAUUCCUCGUCACUCAGCAGGGCAUCUCUGAGAGAAAUGCC
# Variants of: B1
# Assay: self-cleavage, relative activity (ratio to wild type); higher = more cleavage; in vitro, sequencing; the parent is a self-cleaving ribozyme
row,Variant,self-cleavage
1,UACCUAGGUGGUUUUCCCCUGAUAGUGCUAAGGGGGCCUGGAAGUUUGGACUGGGCAGAGCUCAACACAGCGUGGCAAGGUGGCUGUGGCUAGACUGCCUCUCUGGAUUCCUCGUCACUCAGCAGGGCAUCUCUGAGAGAAAUGCC [G4C A79G],0.29
2,UACAUAGGUGAUUUUCCCCUGAUAGUGCUAAGGGGGCCUGGAAGUUUGGACUGGGCAGAGCUCAACACAGCGUGGCAAAGUGGCUGUGGCUAGACUGCCUCUCUGGAUUCCUCGUCACUCAGCAGGGCAUCUCUGAGAGAAAUGCC [G4A G11A],0.58
3,UACAUAGGUGGUUUUCCCCUGAUAGUGCUAAGGGGGCCUGGAAGUUUGGACCGGGCAGAGCUCAACACAGCGUGGCAAAGUGGCUGUGGCUAGACUGCCUCUCUGGAUUCCUCGUCACUCAGCAGGGCAUCUCUGAGAGAAAUGCC [G4A U52C],0.88
4,UACCUAGGUGGUUUUCCCCUGAUAGUGCUAAGGGGGCCUGGAAGUUUGGACUGGGCAGAGCUCAACACAGCGUGGCAAAGUGGCUGUGGCUAGACUGCCUCUCUGGAUUCCUCGUCACUCAGCAGGGCAUCUCUGAGAGAGAUGCC [G4C A141G],0.5
5,UACUUAGGUGGUUUUCCCCUGAUAGUGCUAAGGGGGCCUGGAAGUUUGGACUGGGCAGAGCUCAACACAGCGUGGCGAAGUGGCUGUGGCUAGACUGCCUCUCUGGAUUCCUCGUCACUCAGCAGGGCAUCUCUGAGAGAAAUGCC [G4U A77G],2.68
6,UACCUAGGUGGUUUUCCCCUGAUAGUGCUAAGGGGGCCUGGAAGUUUGGACUGGGCAGAGCUCAACACAGCGUGGCAGAGUGGCUGUGGCUAGACUGCCUCUCUGGAUUCCUCGUCACUCAGCAGGGCAUCUCUGAGAGAAAUGCC [G4C A78G],0.81
7,UACAUAGGUGGUUUUCCCCUGAUAGUGCUAAGGGGGCCUGGAAGUUUGGACUGGGCAGAGCUCAACACAGCGUGGCAAAGUGGCUGUGGCUAGACUGCCUCUCUGGAUUCCUCGCCACUCAGCAGGGCAUCUCUGAGAGAAAUGCC [G4A U115C],0.9
8,UACAUAGGUGGUUUUCCCCUGAUAGUGCUAAGGGGGCCUGGAAGUUUGGACUGGGCAGAGCUCAACACAGCGUGGCAAAGUGGCUGUGGCUAGACUGCCUCUCUGGAUUCCUCGACACUCAGCAGGGCAUCUCUGAGAGAAAUGCC [G4A U115A],1.14
9,UACCUAGGUGGUUUUCCCCUGAUAGUGCUAAGGGGGCCUGGAAGUUUGGACUGGGCAGAGCUCAACACAGCGUGGCGAAGUGGCUGUGGCUAGACUGCCUCUCUGGAUUCCUCGUCACUCAGCAGGGCAUCUCUGAGAGAAAUGCC [G4C A77G],2.9
10,UACAUAGGUGGUUUUCCCCUGAUAGUGCUAAGGGGGCCUGGAAGUUUGGACUGGGCAGAGCUCAACACAGCGUGGCAAAGUGGCUGUGGCUAGACUGCCUCUCUGGAUUCCUCGUCACUCAGCAGGGCACCUCUGAGAGAAAUGCC [G4A U130C],1.38
11,UACAUAGGUGGUUUUCCCCUAAUAGUGCUAAGGGGGCCUGGAAGUUUGGACUGGGCAGAGCUCAACACAGCGUGGCAAAGUGGCUGUGGCUAGACUGCCUCUCUGGAUUCCUCGUCACUCAGCAGGGCAUCUCUGAGAGAAAUGCC [G4A G21A],0.76
12,UACCUAGGUGGUUUUCCCCUGAUAGUGCUAAGGGGGCCUGGAAGUUUGGACUGGGCAGAGCUCAACACAGCGUGGCAAAGUGGCUGUGGCUAGACUGCCUCUCUGGAUUCCUCGCCACUCAGCAGGGCAUCUCUGAGAGAAAUGCC [G4C U115C],2.15
13,UACAUAGGUGGUUUUCCCCUGAUAGUGCUAAGGGGGCCUGGAAGUUUGGACUGGGCAGAGCUCAACACAGCGUGGCAAAGUGGCUGUGGCUAGACUGCCUCUCUGGAUUCCUCGUCACUCAGCAGGGCAUCUCUGAGAAAAAUGCC [G4A G139A],1.21
14,UACAUAGGUGGUUUUCCCCUGAUAGUGCUAAGGGGGCCUGGAAGUUUGGACUGGGCAGAGCUCAACACAGCGUGGCAAAGAGGCUGUGGCUAGACUGCCUCUCUGGAUUCCUCGUCACUCAGCAGGGCAUCUCUGAGAGAAAUGCC [G4A U81A],1.34
15,UACCUAGGUGGUUUUCCCCUGAUAGUGCUAAGGGGGCCUGGAAGUUUGGACUGGGCAGAGCUCAACACAGCGUGGCAAAGUGGCUGUGGCUAGACUGCCUCUCUGGAUUCCUCGUCACUCAGCGGGGCAUCUCUGAGAGAAAUGCC [G4C A124G],0.48
16,UACAUAGGUGGUUUUCCCCUGAUAGUGCUAAGGGGGCCUGGAAGUUUGGACUGGGCAGAGCUCAACACAGCGUGGCAAAGUGGCUGUGGCUAGACCGCCUCUCUGGAUUCCUCGUCACUCAGCAGGGCAUCUCUGAGAGAAAUGCC [G4A U96C],0.15
17,UACAUAGGUGGUUUUCCCCUGAUAGUGCUAAGGGGGCCUGGAAGUUUGGACUGGGCAGAGCUCAACACAGCGUGGCAAAGUGGCUGUGGCUAGACUGCCUCUCUGGAUUCCUCGUCACUCAGCAGGGCAUCUAUGAGAGAAAUGCC [G4A C133A],0.79
18,UACAUAGGUGGUUUUCCCCUGAUAGUGCUAAGGGGGCCUAGAAGUUUGGACUGGGCAGAGCUCAACACAGCGUGGCAAAGUGGCUGUGGCUAGACUGCCUCUCUGGAUUCCUCGUCACUCAGCAGGGCAUCUCUGAGAGAAAUGCC [G4A G40A],1.24
19,UACAUAGGUGGUUUUCCCCGGAUAGUGCUAAGGGGGCCUGGAAGUUUGGACUGGGCAGAGCUCAACACAGCGUGGCAAAGUGGCUGUGGCUAGACUGCCUCUCUGGAUUCCUCGUCACUCAGCAGGGCAUCUCUGAGAGAAAUGCC [G4A U20G],0.62
20,UACAUAGGUGGUUUUCCCCUGACAGUGCUAAGGGGGCCUGGAAGUUUGGACUGGGCAGAGCUCAACACAGCGUGGCAAAGUGGCUGUGGCUAGACUGCCUCUCUGGAUUCCUCGUCACUCAGCAGGGCAUCUCUGAGAGAAAUGCC [G4A U23C],1.11

row,Variant,self-cleavage
1,UACCUAGGUGGUUUUCCCCUGAUAGUGCUAAGGGGGCCUGGAAGUUUGGACUGGGCAGAGCUCAACACAGCGUGGCAAAGUGGCUGUGGCUAGACUGCCUCUCUGGAUUCCACGUCACUCAGCAGGGCAUCUCUGAGAGAAAUGCC [G4C U112A],0.75
2,UACCUAGGUGGUUUUCCCCUGAUAGUGCUAAGGGGGCCUGGAAGUUUGGACUGGGCAGAGCUCGACACAGCGUGGCAAAGUGGCUGUGGCUAGACUGCCUCUCUGGAUUCCUCGUCACUCAGCAGGGCAUCUCUGAGAGAAAUGCC [G4C A64G],1.25
3,UACAUAGGUGGGUUUCCCCUGAUAGUGCUAAGGGGGCCUGGAAGUUUGGACUGGGCAGAGCUCAACACAGCGUGGCAAAGUGGCUGUGGCUAGACUGCCUCUCUGGAUUCCUCGUCACUCAGCAGGGCAUCUCUGAGAGAAAUGCC [G4A U12G],1.23
4,UACAUAGGUGGUUUUCCCCUGAUAGUGCUAAGGGGGCCUGGAAGUUUGGACUGGGCAGAGCUCAACACAGCGUGGCAAAGUGGCCGUGGCUAGACUGCCUCUCUGGAUUCCUCGUCACUCAGCAGGGCAUCUCUGAGAGAAAUGCC [G4A U85C],0.13
5,UACAUAGGUGGUUUUCCCCUGAUAGUGCUAAGGGGGCCUGGAAGUUUGGACUGGGCAGAGCGCAACACAGCGUGGCAAAGUGGCUGUGGCUAGACUGCCUCUCUGGAUUCCUCGUCACUCAGCAGGGCAUCUCUGAGAGAAAUGCC [G4A U62G],0
6,UACCUAGGUGGUUUUCCCCUGAUAGUGCUAAGGGGGCCUGGAAGUUUGGACUGGGCAGAGCUCAACACAGCGUGGCAAAGUGGCUGUGGCUAGACUGCCUCUCUGGUUUCCUCGUCACUCAGCAGGGCAUCUCUGAGAGAAAUGCC [G4C A107U],1.49
7,UACAUAGGUGGUUUUCCCCUGAUAGAGCUAAGGGGGCCUGGAAGUUUGGACUGGGCAGAGCUCAACACAGCGUGGCAAAGUGGCUGUGGCUAGACUGCCUCUCUGGAUUCCUCGUCACUCAGCAGGGCAUCUCUGAGAGAAAUGCC [G4A U26A],0.82
8,UACCUAGGUGGUUUUCCCCUGAUAGUGCUAAGGGGGCCUGGAAGUUUGGACUGGGCAGAGCUCAACACAGCGUGGCAAAGUGGCUGUGGCUAGACAGCCUCUCUGGAUUCCUCGUCACUCAGCAGGGCAUCUCUGAGAGAAAUGCC [G4C U96A],0.12
9,UACAUAGGUGGUUUUCCCCUGAUAGUGCUAAGGGGGCCUGGAAGUUUGGACUGGGCAGAGCUCAACACAGCGUGGCAAAGUGGCUGUGGCUAGACUGCCUCUCUGGACUCCUCGUCACUCAGCAGGGCAUCUCUGAGAGAAAUGCC [G4A U108C],1.04
10,UACAUAGGUGGUUUUCCCCUGAUAGUGCUAAGGGGGCCUGGAAGUUUGGACUGGGCAGAGCUCAACACAGCGUGGCAAAGUGGCUGUGGCUAGACUGCCUCUCCGGAUUCCUCGUCACUCAGCAGGGCAUCUCUGAGAGAAAUGCC [G4A U104C],0.83
11,UACAUAGGUGGUUCUCCCCUGAUAGUGCUAAGGGGGCCUGGAAGUUUGGACUGGGCAGAGCUCAACACAGCGUGGCAAAGUGGCUGUGGCUAGACUGCCUCUCUGGAUUCCUCGUCACUCAGCAGGGCAUCUCUGAGAGAAAUGCC [G4A U14C],0.59
12,UACAUAGGUGGUUAUCCCCUGAUAGUGCUAAGGGGGCCUGGAAGUUUGGACUGGGCAGAGCUCAACACAGCGUGGCAAAGUGGCUGUGGCUAGACUGCCUCUCUGGAUUCCUCGUCACUCAGCAGGGCAUCUCUGAGAGAAAUGCC [G4A U14A],0.75
13,UACAUAGGUGGUUUUCCCCUGAUAGUGCUAAGGGGGCCUGGAAGUUAGGACUGGGCAGAGCUCAACACAGCGUGGCAAAGUGGCUGUGGCUAGACUGCCUCUCUGGAUUCCUCGUCACUCAGCAGGGCAUCUCUGAGAGAAAUGCC [G4A U47A],0.52
14,UACAUAGGUGGUUUUCCCCUGAUAGUGCUAAGGGGGCCUGGAAGUUUGGACUGAGCAGAGCUCAACACAGCGUGGCAAAGUGGCUGUGGCUAGACUGCCUCUCUGGAUUCCUCGUCACUCAGCAGGGCAUCUCUGAGAGAAAUGCC [G4A G54A],0.6
15,UACAUAGGUGGUUUUCCCCUGAUAGUGCUAAGGGGGCCUGGAAGUUUGGACUGGGCAGAGCUCAACACAGCGAGGCAAAGUGGCUGUGGCUAGACUGCCUCUCUGGAUUCCUCGUCACUCAGCAGGGCAUCUCUGAGAGAAAUGCC [G4A U73A],0.97
16,UACAUAGGUGGUUUUCCCCUGAUAGUGCUAAGGGGGCCUGGAAGUUUGGACUGGGCAGAGCUCAACACAGCGCGGCAAAGUGGCUGUGGCUAGACUGCCUCUCUGGAUUCCUCGUCACUCAGCAGGGCAUCUCUGAGAGAAAUGCC [G4A U73C],1.68
17,UACAUAGGUGGUUUUCCCCUGAUAGUGCUAAGGGGGCCUGGAAGUUUGGACUGGGCAGAGCUCAACACAGCGUGGCAAAGUGGCUGGGGCUAGACUGCCUCUCUGGAUUCCUCGUCACUCAGCAGGGCAUCUCUGAGAGAAAUGCC [G4A U87G],0.07
18,UACAUAGGUGGUUUUCCCCUGAUAGUGCUAAGGGGGCCUGGAAGUUUGGACUGGGCAGAGCUCAACACAGCGUGGCAAAGUGGCUGCGGCUAGACUGCCUCUCUGGAUUCCUCGUCACUCAGCAGGGCAUCUCUGAGAGAAAUGCC [G4A U87C],0.1
19,UACUUAGGUGGUUUUCCCCUGAUAGUGCUGAGGGGGCCUGGAAGUUUGGACUGGGCAGAGCUCAACACAGCGUGGCAAAGUGGCUGUGGCUAGACUGCCUCUCUGGAUUCCUCGUCACUCAGCAGGGCAUCUCUGAGAGAAAUGCC [G4U A30G],1.11

# Source: the RNAGym collection of RNA variant scans (doi:10.7554/elife.90254)
